Results reported in publication PMC12326000.

Target: CanA from Pyrodictium abyssi (recombinant full-length CanA) (Pyrodictium abyssi)
Experiment: 1H NMR signal decay during polymerization; 0.97 mM CanA in 50 mM Tris-HCl, 50 mM NaCl, pH 7.5, 10% D2O, 0.4 mM DSS; polymerization started by MgCl2 and CaCl2 to 20 mM each; 298 K; about 42 h; intensity of -0.6 to 0.1 ppm fitted by single or double exponential

critical CanA concentration for polymerization: 2.48 µM
Substance: CanA from Pyrodictium abyssi (recombinant full-length CanA) (natural protein)
